Assay results: patent US20150203577A1 (Chugai, published 2015)
Changes are numbered by the printed parent chain.

T1: mouse FcγRII extracellular domain with C-terminal His tag (mouse, UniProt P08101 30-210)
T1 construct: Made on the basis of NCBI NP-034317.1; also called mFcγRII; mFcgRII
T1 sequence: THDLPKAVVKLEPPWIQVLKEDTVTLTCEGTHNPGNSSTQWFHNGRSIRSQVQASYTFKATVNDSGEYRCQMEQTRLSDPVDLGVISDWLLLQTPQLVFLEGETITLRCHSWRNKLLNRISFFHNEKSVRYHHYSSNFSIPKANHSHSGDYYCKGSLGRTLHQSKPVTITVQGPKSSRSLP

T2: mouse FcγRIII extracellular domain with C-terminal His tag (mouse, UniProt P08508 31-215)
T2 construct: Made on the basis of NCBI NP-034318.2; also called mFcγRIII; mFcgRIII
T2 chain: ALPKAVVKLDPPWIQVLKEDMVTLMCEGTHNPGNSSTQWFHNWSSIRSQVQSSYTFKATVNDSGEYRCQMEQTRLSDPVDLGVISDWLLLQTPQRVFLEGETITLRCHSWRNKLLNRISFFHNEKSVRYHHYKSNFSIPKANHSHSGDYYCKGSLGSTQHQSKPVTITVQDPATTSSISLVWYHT

B1: H237-MB381/MRAL-k0 (antibody, mouse IgG1, kappa)
heavy: QVQLQESGPGLVKPSETLSLTCAVSGHSISHDHAWSWVRQPPGEGLEWIGFISYSGITNYNPSLQGRVTISRDNSKNTLYLQMNSLRAEDTAVYYCARSLARTTAMDYWGEGTLVTVSSAKTTPPSVYPLAPGSAAQTNSMVTLGCLVKGYFPEPVTVTWNSGSLSSGVHTFPAVLQSDLYTLSSSVTVPSSTWPSETVTCNVAHPASSTKVDKKIVPRDCGCKPCICEDNEVEDVFIFPPKPKDVLTITLTPKVTCVVVDISKDDPEVQFSWFVDDVEVHTAQTQPREEQFNSTFRSVSELPIMHQDWLNGKEFKCRVNSAAFPAPIEKTISKTKGRPKAPQVYTIPPPKEQMAKDKVSLTCMITDFFPEDITVEWQWNGQPAENYKNTQPIMDTDGSYFVYSKLNVQKSNWEAGNTFTCSVLHEGLHNHHTEKSLSHSPGK
light: not shown
notes: copies: 2 + 2
B2: H237-MB388/MRAL-k0 (antibody, mouse IgG1, kappa)
heavy: B1 heavy with D230P, N231P
light: not shown
notes: copies: 2 + 2
B3: H237-MB409/MRAL-k0 (antibody, mouse IgG1, kappa)
heavy: B1 heavy with E229D, D230V, N231Y
light: not shown
notes: copies: 2 + 2
B4: H237-MB411/MRAL-k0 (antibody, mouse IgG1, kappa)
heavy: B1 heavy with E229P, D230V, N231Y
light: not shown
notes: copies: 2 + 2
B5: H237-MB415/MRAL-k0 (antibody, mouse IgG1, kappa)
heavy: B1 heavy with E229I, N231Y
light: not shown
notes: copies: 2 + 2
B6: H237-MB385/MRAL-k0 (antibody, mouse IgG1, kappa)
heavy: B1 heavy with D230N
light: not shown
notes: copies: 2 + 2
B7: H237-MB386/MRAL-k0 (antibody, mouse IgG1, kappa)
heavy: B1 heavy with D230N, N231W
light: not shown
notes: copies: 2 + 2
B8: H237-MB393/MRAL-k0 (antibody, mouse IgG1, kappa)
heavy: B1 heavy with D230T, N231P
light: not shown
notes: copies: 2 + 2
B9: H237-MB401/MRAL-k0 (antibody, mouse IgG1, kappa)
heavy: B1 heavy with D230W, N231W
light: not shown
notes: copies: 2 + 2
B10: H237-MB414/MRAL-k0 (antibody, mouse IgG1, kappa)
heavy: B1 heavy with E229D, N231Y
light: not shown
notes: copies: 2 + 2
B11: H237-MB407/MRAL-k0 (antibody, mouse IgG1, kappa)
heavy: B1 heavy with E229Q, D230A, N231Y
light: not shown
notes: copies: 2 + 2
B12: H237-MB412/MRAL-k0 (antibody, mouse IgG1, kappa)
heavy: B1 heavy with E229Q, D230V, N231Y
light: not shown
notes: copies: 2 + 2
B13: H237-MB408/MRAL-k0 (antibody, mouse IgG1, kappa)
heavy: B1 heavy with E229T, D230A, N231Y
light: not shown
notes: copies: 2 + 2
B14: H237-MB402/MRAL-k0 (antibody, mouse IgG1, kappa)
heavy: B1 heavy with D230W, N231Y
light: not shown
notes: copies: 2 + 2
B15: H237-MB406/MRAL-k0 (antibody, mouse IgG1, kappa)
heavy: B1 heavy with E229P, D230A, N231Y
light: not shown
notes: copies: 2 + 2
B16: H237-MB391/MRAL-k0 (antibody, mouse IgG1, kappa)
heavy: B1 heavy with D230P, N231W
light: not shown
notes: copies: 2 + 2
B17: H237-MB384/MRAL-k0 (antibody, mouse IgG1, kappa)
heavy: B1 heavy with D230N, N231A
light: not shown
notes: copies: 2 + 2
B18: H237-MB399/MRAL-k0 (antibody, mouse IgG1, kappa)
heavy: B1 heavy with D230W, N231A
light: not shown
notes: copies: 2 + 2
B19: H237-MB383/MRAL-k0 (antibody, mouse IgG1, kappa)
heavy: B1 heavy with D230N, N231P
light: not shown
notes: copies: 2 + 2
B20: H237-MB395/MRAL-k0 (antibody, mouse IgG1, kappa)
heavy: B1 heavy with D230T
light: not shown
notes: copies: 2 + 2
B21: H237-MB404/MRAL-k0 (antibody, mouse IgG1, kappa)
heavy: B1 heavy with E229D, D230A, N231Y
light: not shown
notes: also called M8404; copies: 2 + 2
B22: H237-MB396/MRAL-k0 (antibody, mouse IgG1, kappa)
heavy: B1 heavy with D230T, N231W
light: not shown
notes: copies: 2 + 2
B23: H237-MB405/MRAL-k0 (antibody, mouse IgG1, kappa)
heavy: B1 heavy with E229I, D230A, N231Y
light: not shown
notes: copies: 2 + 2
B24: H237-MB394/MRAL-k0 (antibody)
heavy: B1 heavy with D230T, N231A
light: not shown
notes: Printed M8394, read as MB394; also called M8394; copies: 2 + 2
B25: H237-MB400/MRAL-k0 (antibody, mouse IgG1, kappa)
heavy: B1 heavy with D230W
light: not shown
notes: copies: 2 + 2
B26: H237-MB392/MRAL-k0 (antibody, mouse IgG1, kappa)
heavy: B1 heavy with D230P, N231Y
light: not shown
notes: copies: 2 + 2
B27: H237-MB413/MRAL-k0 (antibody, mouse IgG1, kappa)
heavy: B1 heavy with E229T, D230V, N231Y
light: not shown
notes: copies: 2 + 2
B28: H237-MB398/MRAL-k0 (antibody, mouse IgG1, kappa)
heavy: B1 heavy with D230W, N231P
light: not shown
notes: copies: 2 + 2

Columns and labels:
[1] = molecular target: T1, mouse FcγRII extracellular domain with …; experiment: SPR Biacore T200; KD mFcγRIII / KD mFcγRII
Method: (§1) Each altered antibody was analyzed for its interaction with each Fcγ receptor prepared above using Biacore T100 (GE Healthcare Japan Corp.), Biacore T200 (GE Healthcare Japan Corp.), Biacore A100, or Biacore 4000. The running buffer used was HBS-EP+ (GE Healthcare Japan Corp.). The assay temperature was set to 25° C. The sensor chips used were chips prepared by immobilizing Protein L (ACTIGEN or BioVision) onto Series S Sensor Chip CM5 (GE Healthcare Japan Corp.) or Series S Sensor Chip CM4 (GE Healthcare Japan Corp.) by the amine coupling method.
(§2) In order to calculate the KD value of each altered antibody for FcγR, kinetic analysis was conducted according to the following method: first, the antibody of interest was captured onto any of these chips and allowed to interact with mFcγR diluted with a running buffer. For the obtained sensorgram, the assay results were globally fit into the 1:1 Langmuir binding model using Biacore Evaluation Software to calculate an association rate constant ka (L/mol/s) and a dissociation rate constant kd (1/s). From these values, the dissociation constant KD (mol/L) was calculated.

[2] = molecular target: T1, mouse FcγRII extracellular domain with …; experiment: SPR Biacore T200
Method: as §1, §2

[3] = molecular target: T2, mouse FcγRIII extracellular domain with …; experiment: SPR Biacore T200
Method: as §1, §2

Row | Binder | relative I/A (mFcγRII selectivity) (mIgG1 = 1) [1] | relative mFcγRII-binding activity (mIgG1 = 1) [2] | relative mFcγRIII-binding activity (mIgG1 = 1) [3] | I/A (mFcγRII selectivity) [1] | Kd [2] [nM] | Kd [3] [nM]
1 | B1 | 16.5 | 93.5 | 5.7 |  |  | 
2 | B2 | 25.9 | 277 | 10.8 | 34.6 | 0.757 | 26.2
3 | B3 | 18 | 192 | 10.7 |  |  | 
4 | B4 | 16.4 | 132 | 8.1 |  |  | 
5 | B5 | 17.5 | 159 | 9.1 |  |  | 
6 | B6 | 19.2 | 152 | 7.9 |  |  | 
7 | B7 | 18.6 | 268 | 14.5 | 24.9 | 0.784 | 19.5
8 | B8 | 16 | 89.9 | 5.6 |  |  | 
9 | B9 | 23.7 | 162 | 6.9 |  |  | 
10 | B10 | 23.6 | 189 | 8.1 |  |  | 
11 | B11 | 16.9 | 164 | 9.8 |  |  | 
12 | B12 | 13.7 | 113 | 8.3 |  |  | 
13 | B13 | 12.5 | 163 | 13.1 |  |  | 
14 | B14 | 17.4 | 208 | 12 | 23.3 | 1.01 | 23.6
15 | B15 | 29.6 | 191 | 6.5 |  |  | 
16 | B16 | 25.9 | 281 | 10.9 | 34.7 | 0.747 | 25.9
17 | B17 | 19.8 | 125 | 6.3 |  |  | 
18 | B18 | 18.2 | 71.8 | 3.9 |  |  | 
19 | B19 | 19.6 | 106 | 5.4 |  |  | 
20 | B20 | 18.7 | 154 | 8.2 |  |  | 
21 | B21 | 27.6 | 236 | 8.6 | 37 | 0.891 | 33
22 | B22 | 16.6 | 297 | 17.9 | 22.3 | 0.707 | 15.8
23 | B23 | 18.2 | 146 | 8 |  |  | 
24 | B24 | 17.8 | 134 | 7.5 |  |  | 
25 | B25 | 15 | 81.7 | 5.5 |  |  | 
26 | B26 | 17.8 | 257 | 14.5 | 23.9 | 0.817 | 19.5
27 | B27 | 9.1 | 108 | 11.9 |  |  | 
28 | B28 | 13 | 45.8 | 3.5 |  |  | 
